Percent inhibition of the luciferase signal of HIV IN-VP16 with Gal4-IBD and response data for eleven substances are collected here from PMC5715112.

One assay deals with GAL4 DNA binding domain (DBD)-LEDGF IBD fusion (pM1, CHO cells). The assay can be described thus: two-hybrid; mammalian three-hybrid competition in CHO cells: GAL4 DBD-IBD bait, HIV IN-VP16 prey and a free competitor from pEF-BOS-cyto; Firefly/Renilla luciferase.
Conditions: not given
“free HIV IN (competitor, pEF-BOS-cyto, CHO cells) (enzyme)”: the percent inhibition of the luciferase signal of HIV IN-VP16 with Gal4-IBD came out at 90%.

Another assay has as its target HIV integrase fused to the VP16 activation domain (pEF-VP16, CHO cells). Briefly: mammalian two-hybrid luciferase reporter assay in CHO cells. The settings on record: 48 h after transfection; Firefly luciferase normalised to Renilla; parent: est. 1.4; read off a plot. (In general: In a reporter assay the amount or activity of a reporter protein is the signal.)
Regarding “GAL4 DNA binding domain (DBD)-LEDGF IBD fusion (pM1, CHO cells) K402A”, the response came to 0.6.
Regarding “GAL4 DNA binding domain (DBD)-LEDGF IBD fusion (pM1, CHO cells) K364A”, the response was found to be 0.08.
Take “GAL4 DNA binding domain (DBD)-LEDGF IBD fusion (pM1, CHO cells) I365A”: the response was 0.02.
Regarding “GAL4 DNA binding domain (DBD)-LEDGF IBD fusion (pM1, CHO cells) V408A”, the response worked out at 0.4.
On to “GAL4 DNA binding domain (DBD)-LEDGF IBD fusion (pM1, CHO cells) L368A”, for which the response was found to be 0.01.
Take “GAL4 DNA binding domain (DBD)-LEDGF IBD fusion (pM1, CHO cells) L363A”: the response amounted to 0.25.
On the same count and under the same terms, the figure for “GAL4 DNA binding domain (DBD)-LEDGF IBD fusion (pM1, CHO cells) K407A” is 3.3; for “GAL4 DNA binding domain (DBD)-LEDGF IBD fusion (pM1, CHO cells) R405A” it is 1.3; for “GAL4 DNA binding domain (DBD)-LEDGF IBD fusion (pM1, CHO cells) D366A” it is 0.02.
Regarding “GAL4 DNA binding domain (DBD)-LEDGF IBD fusion (pM1, CHO cells) F406A”, the response came to 0.04.
